Laboratory results reported in the supplement of paper PMC9112550, “Optimization of the antimicrobial peptide Bac7 by deep mutational scanning” (BMC Biology, 2022).
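Also: peptides expressed intracellularly from a pBAD plasmid library in pooled LB shake-flask culture, induced with 0.3% L-arabinose, DNA abundance read by NGS, three biological replicates, DESeq2 with apeglm shrinkage.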

Each sequence was assayed on Escherichia coli TOP10 (assay: shrunken log2 fold change of peptide-encoding DNA abundance (4.5 h post-induction vs induction); higher = less antimicrobial activity (less host growth inhibition)). Details: time post-induction: 4.5 h; library: site-saturation at positions 5, 18, 19, 20.
RRIRLRPPRLPRPRPRPHEIPRP was tested, and the “shrunken log2 fold change” value was -0.298. In the case of RRIRARPPRLPRPRPRPFVTPRP, the “shrunken log2 fold change” value was -0.166. RRIRKRPPRLPRPRPRPEDDPRP was tested, and the “shrunken log2 fold change” value was 0.00862. RRIRFRPPRLPRPRPRPQIIPRP was tested, and the “shrunken log2 fold change” value was -0.149. In the case of RRIRERPPRLPRPRPRPNHAPRP, the “shrunken log2 fold change” value was -0.239. In the case of RRIRQRPPRLPRPRPRPTVFPRP, the “shrunken log2 fold change” value was -0.0987. In the case of RRIRYRPPRLPRPRPRPMSSPRP, the “shrunken log2 fold change” value was -0.0121. With RRIRNRPPRLPRPRPRPFFNPRP the “shrunken log2 fold change” value was -0.725. With RRIRQRPPRLPRPRPRPWENPRP the “shrunken log2 fold change” value was 0.0728. In the case of RRIRNRPPRLPRPRPRPEQDPRP, the “shrunken log2 fold change” value was 0.0235. For RRIRCRPPRLPRPRPRPKMHPRP, the “shrunken log2 fold change” value was -0.121. For RRIRRRPPRLPRPRPRPNDVPRP, the “shrunken log2 fold change” value was -0.0736. For RRIRIRPPRLPRPRPRPVHDPRP, the “shrunken log2 fold change” value was -0.0869. In the case of RRIRYRPPRLPRPRPRPAIRPRP, the “shrunken log2 fold change” value was -0.0189. In the case of RRIRTRPPRLPRPRPRPMAHPRP, the “shrunken log2 fold change” value was -0.161. RRIRYRPPRLPRPRPRPICFPRP was tested, and the “shrunken log2 fold change” value was -0.332. RRIRDRPPRLPRPRPRPAVSPRP was tested, and the “shrunken log2 fold change” value was -0.000946. With RRIRPRPPRLPRPRPRPCTAPRP the “shrunken log2 fold change” value was -0.109. For RRIRIRPPRLPRPRPRPTNCPRP, the “shrunken log2 fold change” value was -0.649. RRIRGRPPRLPRPRPRPMNSPRP was tested, and the “shrunken log2 fold change” value was 0.0334. For RRIRMRPPRLPRPRPRPFQKPRP, the “shrunken log2 fold change” value was -0.00623. For RRIRCRPPRLPRPRPRPNPHPRP, the “shrunken log2 fold change” value was -0.158. With RRIRYRPPRLPRPRPRPHYEPRP the “shrunken log2 fold change” value was -1.49. RRIRDRPPRLPRPRPRPIHHPRP was tested, and the “shrunken log2 fold change” value was -0.649. For RRIRMRPPRLPRPRPRPVWYPRP, the “shrunken log2 fold change” value was -0.0263. With RRIRCRPPRLPRPRPRPWAPPRP the “shrunken log2 fold change” value was -0.102. With RRIRRRPPRLPRPRPRPIIPPRP the “shrunken log2 fold change” value was -0.36. With RRIRKRPPRLPRPRPRPHTGPRP the “shrunken log2 fold change” value was -0.0786. For RRIRLRPPRLPRPRPRPTVAPRP, the “shrunken log2 fold change” value was 0.0307. In the case of RRIRERPPRLPRPRPRPRINPRP, the “shrunken log2 fold change” value was -0.427. For RRIRPRPPRLPRPRPRPVKDPRP, the “shrunken log2 fold change” value was -0.0309. RRIRYRPPRLPRPRPRPITHPRP was tested, and the “shrunken log2 fold change” value was -0.211. RRIRDRPPRLPRPRPRPCAVPRP was tested, and the “shrunken log2 fold change” value was 0.189. RRIRFRPPRLPRPRPRPSCHPRP was tested, and the “shrunken log2 fold change” value was -0.495. With RRIRIRPPRLPRPRPRPLIYPRP the “shrunken log2 fold change” value was -0.255. RRIRYRPPRLPRPRPRPRLTPRP was tested, and the “shrunken log2 fold change” value was -0.0803. In the case of RRIRSRPPRLPRPRPRPEWVPRP, the “shrunken log2 fold change” value was 0.146. For RRIRMRPPRLPRPRPRPGSRPRP, the “shrunken log2 fold change” value was 0.991. In the case of RRIRARPPRLPRPRPRPDTMPRP, the “shrunken log2 fold change” value was 0.0783. For RRIRLRPPRLPRPRPRPAYLPRP, the “shrunken log2 fold change” value was -0.304. In the case of RRIRWRPPRLPRPRPRPAYMPRP, the “shrunken log2 fold change” value was -0.205. With RRIRHRPPRLPRPRPRPQFMPRP the “shrunken log2 fold change” value was -0.864. In the case of RRIRNRPPRLPRPRPRPMIHPRP, the “shrunken log2 fold change” value was -0.136. In the case of RRIRNRPPRLPRPRPRPKDQPRP, the “shrunken log2 fold change” value was -0.108. RRIRSRPPRLPRPRPRPTDNPRP was tested, and the “shrunken log2 fold change” value was -0.249. RRIRWRPPRLPRPRPRPRDEPRP was tested, and the “shrunken log2 fold change” value was 0.0548. RRIRWRPPRLPRPRPRPTFMPRP was tested, and the “shrunken log2 fold change” value was -0.172. In the case of RRIRHRPPRLPRPRPRPYKDPRP, the “shrunken log2 fold change” value was -0.017. For RRIRARPPRLPRPRPRPEPMPRP, the “shrunken log2 fold change” value was 0.44. With RRIRMRPPRLPRPRPRPVVFPRP the “shrunken log2 fold change” value was 2.6. In the case of RRIRWRPPRLPRPRPRPYAAPRP, the “shrunken log2 fold change” value was 0.445. With RRIRRRPPRLPRPRPRPQLHPRP the “shrunken log2 fold change” value was -0.00676. For RRIRMRPPRLPRPRPRPRNCPRP, the “shrunken log2 fold change” value was 0.0629. In the case of RRIRHRPPRLPRPRPRPMTIPRP, the “shrunken log2 fold change” value was -0.081. For RRIRCRPPRLPRPRPRPMASPRP, the “shrunken log2 fold change” value was -0.00968. RRIRKRPPRLPRPRPRPSKEPRP was tested, and the “shrunken log2 fold change” value was 0.0111. With RRIRKRPPRLPRPRPRPQRLPRP the “shrunken log2 fold change” value was 0.308. RRIRIRPPRLPRPRPRPCMPPRP was tested, and the “shrunken log2 fold change” value was -0.908. In the case of RRIRARPPRLPRPRPRPFNSPRP, the “shrunken log2 fold change” value was -0.0353. With RRIRIRPPRLPRPRPRPHNIPRP the “shrunken log2 fold change” value was -0.424. In the case of RRIRMRPPRLPRPRPRPQWAPRP, the “shrunken log2 fold change” value was -0.0175. RRIRIRPPRLPRPRPRPESQPRP was tested, and the “shrunken log2 fold change” value was 0.0553. In the case of RRIRYRPPRLPRPRPRPRYYPRP, the “shrunken log2 fold change” value was -2.49. With RRIRKRPPRLPRPRPRPVNCPRP the “shrunken log2 fold change” value was -0.112. RRIRHRPPRLPRPRPRPCSPPRP was tested, and the “shrunken log2 fold change” value was -0.232. In the case of RRIRDRPPRLPRPRPRPPSPPRP, the “shrunken log2 fold change” value was 0.494. For RRIRWRPPRLPRPRPRPDVIPRP, the “shrunken log2 fold change” value was -0.118. For RRIRMRPPRLPRPRPRPVVNPRP, the “shrunken log2 fold change” value was 0.0747. With RRIRKRPPRLPRPRPRPLCWPRP the “shrunken log2 fold change” value was 0.52. With RRIRMRPPRLPRPRPRPQTNPRP the “shrunken log2 fold change” value was 0.462. With RRIRYRPPRLPRPRPRPPMAPRP the “shrunken log2 fold change” value was 0.298. In the case of RRIRARPPRLPRPRPRPKVKPRP, the “shrunken log2 fold change” value was 0.171. RRIRNRPPRLPRPRPRPCLQPRP was tested, and the “shrunken log2 fold change” value was -0.344. With RRIRERPPRLPRPRPRPNNHPRP the “shrunken log2 fold change” value was -0.933. With RRIRQRPPRLPRPRPRPMRSPRP the “shrunken log2 fold change” value was 0.196.
